For data set [1], the target named is T1, N-terminal HA-tagged VDAC2 (murine, UniProt Q60930 1-295).
T1 construct: also called HA-VDAC2; hemagglutinin (HA)-tagged version of VDAC2; not shown: N-terminal HA tag
T1 sequence (looked up): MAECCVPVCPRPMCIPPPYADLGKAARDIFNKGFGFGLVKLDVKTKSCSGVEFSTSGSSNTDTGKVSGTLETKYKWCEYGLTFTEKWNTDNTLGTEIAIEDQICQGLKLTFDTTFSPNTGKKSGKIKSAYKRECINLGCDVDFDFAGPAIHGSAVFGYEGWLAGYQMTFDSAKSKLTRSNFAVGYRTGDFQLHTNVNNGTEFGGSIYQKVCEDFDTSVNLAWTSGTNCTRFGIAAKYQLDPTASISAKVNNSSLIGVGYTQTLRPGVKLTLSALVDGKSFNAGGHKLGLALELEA
Kind of data set: anti-HA immunoprecipitation in 1% CHAPS or 0.2% NP40, anti-BIM immunoblot. An excerpt: Mitochondria isolated from wild-type MEFs or vdac2 -/- mouse embryonic fibroblasts (MEFS) with retroviral transduction of N-terminal HA-tagged VDAC2 were solubilized in either 1% CHAPS or 0.2% NP40 buffer, followed by anti-HA immunoprecipitation.
On the technique in general: Immunoblotting shows a protein as a band on a membrane.

The target in data set [2] is T2, VDAC2 (Mus musculus, UniProt Q60930).
T2 construct: expressed in transfected cells; host or cells: vdac1 -/-, vdac3 -/- mouse fibroblasts; wt or vdac2 -/- MEFs; Bax, Bak doubly deficient MEFs (retrovirus pMIG)
T2 sequence (Q60930 1-295): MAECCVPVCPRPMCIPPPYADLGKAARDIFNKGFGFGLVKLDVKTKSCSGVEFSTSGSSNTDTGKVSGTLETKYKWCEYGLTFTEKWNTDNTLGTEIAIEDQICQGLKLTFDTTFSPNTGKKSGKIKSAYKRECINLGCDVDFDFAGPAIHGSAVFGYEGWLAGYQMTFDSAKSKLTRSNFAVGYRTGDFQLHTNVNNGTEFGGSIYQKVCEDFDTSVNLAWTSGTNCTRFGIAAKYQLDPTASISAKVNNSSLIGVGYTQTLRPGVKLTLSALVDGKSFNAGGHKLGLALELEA
Description: Anti-HA immunoprecipitation of HA-tagged VDAC2 with BH3-only molecules. The following applies: mitochondria, anti-HA immunoprecipitation, 1% CHAPS (or 0.2% NP40). Format: binding. The source says:
Murine vdac1, vdac2, N-terminal HA-tagged vdac2, N-terminal-HA tagged Bax or Bak, as well as wild type and mutant Bak (mBH1, W122A, G123E, R124A; mBH3, L75E) were cloned into the retroviral expression vector MSCV-IRES-GFP (pMIG). PcDNA3-tBID (wt and mutants) was described previously M. C. Wei et al., Genes Dev 14, 2060-71. (2000). Generation of amphotropic retroviruses and retroviral infection were described previously E. H. Cheng et al., Mol Cell 8, 705-11. (2001). Retroviral expression of each indicated protein was confirmed by immunoblot. […]
The strength of association between BIM-EL and VDAC2 was compared to the strength of the association, if any, between BIM-EL and BAK or BAX. Mitochondria isolated from Bax, Bak doubly deficient MEFs transduced with retrovirus expressing N-terminal HA-tagged BAX, BAK, or VDAC2 were solubilized in 1% CHAPS or 0.2% NP-40 buffer, followed by anti-HA immunoprecipitation. The immunoprecipitates were analyzed by an immunoblot developed with anti-BIM. […] These findings indicate that BH3-only competition for VDAC2 frees BAK, which, in the absence of its specific inhibitor VDAC2, is prone to auto-activating homo-oligomerization. […]

Data set [3] addresses T1, N-terminal HA-tagged VDAC2. Description: anti-HA immunoprecipitation in 1% CHAPS from Bax, Bak doubly deficient MEF mitochondria before or after etoposide, anti-PUMA immunoblot (FIG. 11B). The method, then:
For FIG. 11A, mitochondria isolated from vdac1 -/-, vdac3 -/- mouse fibroblasts with or without retroviral transduction of N-terminal HA-tagged VDAC2 were incubated with in vitro transcribed, translated PUMA protein at 30° C. for 30 min, followed by anti-HA immunoprecipitation in 1% CHAPS buffer. The immunoprecipitates were analyzed by an immunoblot developed with anti-PUMA. For FIG. 11B, mitochondria were isolated from Bax, Bak doubly deficient MEFs with or without retroviral transduction of N-terminal HA-tagged VDAC2 before or after etoposide treatment (10 μM) for 20 hours, followed by anti-HA immunoprecipitation in 1% CHAPS buffer. The immunoprecipitates were analyzed by an immunoblot developed with anti-PUMA (FIG. 11B, lower panel).

Data set [4] addresses VDAC1 (endogenous) (mouse, UniProt Q60932-2 2-283, limits assumed). Kind of data set: DSS crosslinking of vdac2-deficient ES cells, anti-BAK immunoblot.
Data set [5] deals with T3, VDAC2 (endogenous, or untagged murine vdac2 re-expressed by retrovirus) (murine, UniProt Q60930 1-295).
T3 construct: In mitochondria or whole cells; also called Voltage-Dependent Anion Channel 2; protein X
T3 sequence (looked up): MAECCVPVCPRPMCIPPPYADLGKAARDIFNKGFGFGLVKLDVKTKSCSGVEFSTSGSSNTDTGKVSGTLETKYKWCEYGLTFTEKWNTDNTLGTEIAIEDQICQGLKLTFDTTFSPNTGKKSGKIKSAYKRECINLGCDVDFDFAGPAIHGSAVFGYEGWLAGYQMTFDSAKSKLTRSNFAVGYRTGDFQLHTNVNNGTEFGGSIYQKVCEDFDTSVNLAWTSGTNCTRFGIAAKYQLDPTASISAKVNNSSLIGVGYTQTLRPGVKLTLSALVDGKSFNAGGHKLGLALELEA
Description: restatement of the co-immunoprecipitation result.

Data set [6] concerns the molecule itself. Description: Superdex 200 gel filtration of mitochondrial lysates in 2% CHAPS, anti-BAK immunoblot. As to the method: The chromatographic step of Superdex 200 (HR 10/30, Amersham-Pharmacia) was performed on an automatic fast protein liquid chromatography (FPLC) station (Amersham-Pharmacia) at 4° C. The column was equilibrated with buffer containing 2% CHAPS, 300 mM NaCl, 0.2 mM DTT, and 25 mM Hepes, pH 7.5 and calibrated with thyroglobulin (669 kD, Amersham-Pharmacia), ferritin (440 kD, Amersham-Pharmacia), catalase (232 kD, Amersham-Pharmacia), aldolase (158 kD, Amersham-Pharmacia), bovine serum albumin (66 kD, Calbiochem), and cytochrome c (14 kD, Sigma). 200 μl of mitochondrial lysates (1 mg/ml protein in the same buffer as above) was loaded onto the column, eluted at a flow rate of 0.3 ml/minute. Fractions of 0.6 ml were collected, precipitated by trichloroacetic acid, and analyzed by an immunoblot (fractions 16-31) developed with an anti-BAK Ab.

Data set [7] concerns the target T3, VDAC2 (endogenous, or untagged murine …). Description: DSS crosslinking of reconstituted Bax, Bak doubly-deficient MEFs, anti-BAK immunoblot.

Chain of VDAC1 (endogenous) (Q60932 15-296 limits assumed): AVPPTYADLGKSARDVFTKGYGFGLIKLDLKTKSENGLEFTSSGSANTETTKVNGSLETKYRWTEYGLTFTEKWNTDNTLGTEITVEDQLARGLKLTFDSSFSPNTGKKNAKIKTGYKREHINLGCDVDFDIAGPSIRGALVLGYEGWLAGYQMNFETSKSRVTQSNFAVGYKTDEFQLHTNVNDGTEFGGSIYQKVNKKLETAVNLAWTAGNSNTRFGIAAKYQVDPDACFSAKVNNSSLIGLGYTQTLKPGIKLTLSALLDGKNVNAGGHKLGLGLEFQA

B1: BIM-EL (endogenous) (other, mouse, UniProt O54918-1 1-196, looked up)
chain: MAKQPSDVSSECDREGGQLQPAERPPQLRPGAPTSLQTEPQGNPDGEGDRCPHGSPQGPLAPPASPGPFATRSPLFIFVRRSSLLSRSSSGYFSFDTDRSPAPMSCDKSTQTPSPPCQAFNHYLSAMASIRQSQEEPEDLRPEIRIAQELRRIGDEFNETYTRRVFANDYREAEDHPQMVILQLLRFIFRLVWRRH
notes: also called BH3-only molecule BIM-EL
In the case of B1, the binding result in data set [1] was “binds”.

B2: PUMA (endogenous, induced by etoposide) (other, mouse, UniProt Q99ML1 1-193, looked up)
chain: MARARQEGSSPEPVEGLARDSPRPFPLGRLMPSAVSCSLCEPGLPAAPAAPALLPAAYLCAPTAPPAVTAALGGPRWPGGHRSRPRGPRPDGPQPSLSPAQQHLESPVPSAPEALAGGPTQAAPGVRVEEEEWAREIGAQLRRMADDLNAQYERRRQEEQHRHRPSPWRVMYNLFMGLLPLPRDPGAPEMEPN
notes: also called induced PUMA
For B2, the “interaction with HA-tagged VDAC2 (co-immunoprecipitation)” value in data set [2] is listed as “stable interaction”. Moreover, in data set [3], the binding result is “binds”.

B3: BAK (endogenous, or wild type Bak reconstituted by retrovirus) (other, murine, UniProt O08734 2-209, looked up)
chain: ASGQGPGPPKVGCDESPSPSEQQVAQDTEEVFRSYVFYLHQQEQETQGAAAPANPEMDNLPLEPNSILGQVGRQLALIGDDINRRYDTEFQNLLEQLQPTAGNAYELFTKIASSLFKSGISWGRVVALLGFGYRLALYVYQRGLTGFLGQVTCFLADIILHHYIARWIAQRGGWVAALNFRRDPILTVMVIFGVVLLGQFVVHRFFRS
notes: Integral mitochondrial membrane protein, tested in mitochondria or whole cells; also called endogenous BAK; wt Bak
For B3, the binding result is “no binding” in data set [4], “binds” in data set [5] and “binds” in data set [6].

B4: mutant Bak mBH3 (L75E) (other, murine, UniProt O08734 2-209, looked up)
chain: ASGQGPGPPKVGCDESPSPSEQQVAQDTEEVFRSYVFYLHQQEQETQGAAAPANPEMDNLPLEPNSILGQVGRQEALIGDDINRRYDTEFQNLLEQLQPTAGNAYELFTKIASSLFKSGISWGRVVALLGFGYRLALYVYQRGLTGFLGQVTCFLADIILHHYIARWIAQRGGWVAALNFRRDPILTVMVIFGVVLLGQFVVHRFFRS
notes: also called BAK mutated within the BH3 domain (L75E)
Turning to B4, the binding result in data set [7] was “no binding”.

For the origin of these results see patent publication US20050085420A1, “Method of modulating apoptosis and compositions thereof” (priority 2003, published 2005).
